Laboratory results published in patent US20190385705A1.

How the values were obtained:
[1] = biological target: intact ZIKV particles (ZIKV envelope protein) (Zika virus); experiment: direct ELISA on coated intact ZIKV particles (10-fold dilutions), antibody 1 ug/ml, anti-mouse IgG-HRP; FPLR fit
[2] = biological target: intact ZIKV particles (ZIKV envelope protein) (Zika virus); experiment: direct ELISA on coated intact ZIKV particles (10-fold dilutions), antibody 1 ug/ml, anti-mouse IgG-HRP; LOD = blank + 3 SD
[3] = biological target: intact ZIKV particles (ZIKV envelope protein) (Zika virus); experiment: direct ELISA on coated intact ZIKV particles (10-fold dilutions), biotinylated peptide 2 uM, streptavidin-HRP; FPLR fit
[4] = biological target: intact ZIKV particles (ZIKV envelope protein) (Zika virus); experiment: direct ELISA on coated intact ZIKV particles (10-fold dilutions), biotinylated peptide 2 uM, streptavidin-HRP; LOD = blank + 3 SD
[5] = biological target: intact DENV-1 particles (Dengue virus serotype 1); experiment: direct ELISA, plates coated with 10^5 copies/mL of intact virus particles
[6] = biological target: intact DENV-2 particles (Dengue virus serotype 2); experiment: as above
[7] = biological target: intact DENV-3 particles (Dengue virus serotype 3); experiment: as above
[8] = biological target: intact ZIKV particles (ZIKV envelope protein) (Zika virus); experiment: direct ELISA on coated intact ZIKV particles (10-fold dilutions), biotinylated peptide 0.5 uM, streptavidin-HRP; FPLR fit
[9] = biological target: intact ZIKV particles (ZIKV envelope protein) (Zika virus); experiment: direct ELISA on coated intact ZIKV particles (10-fold dilutions), biotinylated peptide 0.5 uM, streptavidin-HRP; LOD = blank + 3 SD
[10] = biological target: intact ZIKV particles (ZIKV envelope protein) (Zika virus); experiment: direct ELISA on coated intact ZIKV particles (10-fold dilutions), biotinylated peptide 5 uM, streptavidin-HRP; FPLR fit
[11] = biological target: intact ZIKV particles (ZIKV envelope protein) (Zika virus); experiment: direct ELISA on coated intact ZIKV particles (10-fold dilutions), biotinylated peptide 5 uM, streptavidin-HRP; LOD = blank + 3 SD
[12] = biological target: intact ZIKV particles (ZIKV envelope protein) (Zika virus); experiment: direct ELISA on coated intact ZIKV particles (10-fold dilutions), biotinylated peptide 20 uM, streptavidin-HRP; LOD = blank + 3 SD
[13] = biological target: intact ZIKV particles (ZIKV envelope protein) (Zika virus); experiment: direct ELISA on coated intact ZIKV particles, mono-arm peptide 20 uM in urine (1:1) or serum (1:10); data not shown
[14] = biological target: intact ZIKV particles (ZIKV envelope protein) (Zika virus); experiment: direct ELISA on coated intact ZIKV particles (10-fold dilutions), biotinylated peptide 20 uM, streptavidin-HRP; FPLR fit

antibody 4G2 hybridoma mouse IgG2a
FPLR C50 (log[ZIKV], copies/mL) [1]: 6.2
FPLR minimum [1]: 0.04 ΔA
LOD (log[ZIKV], copies/mL) [2]: 5.8

WPHTQGPGCCGPGLRGHA (designed binder, maleimide-PEG2-biotin on the cysteines of the bridge (thioether)) [clamp peptide C2]
FPLR C50 (log[ZIKV], copies/mL) [3]: 6.2
FPLR minimum [3]: 0.05 ΔA
LOD (log[ZIKV], copies/mL) [4]: 4.5

WPWIGTGPGCCGPGKRNATP (designed binder, maleimide-PEG2-biotin on the cysteines of the bridge (thioether)) [clamp peptide C3]
signal decrease against the ZIKV signal [5]: 70%
signal decrease against the ZIKV signal [6]: 70%
signal decrease against the ZIKV signal [7]: 70%
FPLR C50 (log[ZIKV], copies/mL) [8]: 5.3
FPLR minimum [8]: 0.05 ΔA
LOD (log[ZIKV], copies/mL) [9]: 3.5

AGRRPGPGCCGPGLRGHA (designed binder, maleimide-PEG2-biotin on the cysteines of the bridge (thioether)) [clamp peptide C6]
signal decrease against the ZIKV signal [6]: 45%
signal decrease against the ZIKV signal [7]: 55%
FPLR C50 (log[ZIKV], copies/mL) [8]: 5.2
FPLR minimum [8]: 0.05 ΔA
LOD (log[ZIKV], copies/mL) [9]: 3.5

MDSPIKGPGCCGPGKTDAYS (designed binder, maleimide-PEG2-biotin on the cysteines of the bridge (thioether)) [clamp peptide C8]
FPLR C50 (log[ZIKV], copies/mL) [10]: 6.2
FPLR minimum [10]: 0.03 ΔA
LOD (log[ZIKV], copies/mL) [11]: 4.7

CSWPGQ (maleimide-PEG2-biotin on the N-terminal cysteine) [mono-arm peptide P1]
LOD (log[ZIKV], copies/mL) [12]: 6.8

WPWIGTGPGCCGPGKTDAYS (designed binder, maleimide-PEG2-biotin on the cysteines of the bridge (thioether)) [clamp peptide C4]
FPLR C50 (log[ZIKV], copies/mL) [3]: 6.3
FPLR minimum [3]: 0.02 ΔA
LOD (log[ZIKV], copies/mL) [4]: 5.7

MDSPIKGPGCCGPGKRNATP (designed binder, maleimide-PEG2-biotin on the cysteines of the bridge (thioether)) [clamp peptide C7]
signal decrease against the ZIKV signal [5]: 70%
signal decrease against the ZIKV signal [6]: 70%
signal decrease against the ZIKV signal [7]: 70%
FPLR C50 (log[ZIKV], copies/mL) [10]: 5.8
FPLR minimum [10]: 0.01 ΔA
LOD (log[ZIKV], copies/mL) [11]: 3.7

AGRRPGPGCCGPGSWPGQ (designed binder, maleimide-PEG2-biotin on the cysteines of the bridge (thioether)) [clamp peptide C5]
FPLR C50 (log[ZIKV], copies/mL) [10]: 6.4
FPLR minimum [10]: 0.01 ΔA
LOD (log[ZIKV], copies/mL) [11]: 5.8

CLRGHA (maleimide-PEG2-biotin on the N-terminal cysteine) [mono-arm peptide P2]
lowest ZIKV concentration detected in urine or serum [13]: 1e+06 copies/mL
FPLR C50 (log[ZIKV], copies/mL) [14]: 6.2
FPLR minimum [14]: 0.04 ΔA
LOD (log[ZIKV], copies/mL) [12]: 4.5

CKTDAYS (maleimide-PEG2-biotin on the N-terminal cysteine) [mono-arm peptide X2]
FPLR C50 (log[ZIKV], copies/mL) [14]: 6.1
FPLR minimum [14]: 0.01 ΔA
LOD (log[ZIKV], copies/mL) [12]: 5.8

CKRNATP (maleimide-PEG2-biotin on the N-terminal cysteine) [mono-arm peptide X1]
lowest ZIKV concentration detected in urine or serum [13]: 1e+07 copies/mL
FPLR C50 (log[ZIKV], copies/mL) [14]: 6.1
FPLR minimum [14]: 0.03 ΔA
LOD (log[ZIKV], copies/mL) [12]: 4.8

WPHTQGPGCCGPGSWPGQ (designed binder, maleimide-PEG2-biotin on the cysteines of the bridge (thioether)) [clamp peptide C1]
FPLR C50 (log[ZIKV], copies/mL) [3]: 6.3
FPLR minimum [3]: 0.03 ΔA
LOD (log[ZIKV], copies/mL) [4]: 4.8
